How the values were obtained:
Assay in all cases: FACS, mAb 5 µg/ml, CD20 variant on transfected HEK293 cells
S177A = molecular target: S177A
K175F = molecular target: K175F
N176A = molecular target: N176A
E174D = molecular target: E174D
P172A = molecular target: P172A
N171H = molecular target: N171H
K175R = molecular target: K175R
N171A = molecular target: N171A
S173A = molecular target: S173A
A170S = molecular target: A170S
A170P = molecular target: A170P
E168A = molecular target: E168A
E174Y = molecular target: E174Y
WT = molecular target: WT
WT, sequence (CD20, as listed by the source limits assumed): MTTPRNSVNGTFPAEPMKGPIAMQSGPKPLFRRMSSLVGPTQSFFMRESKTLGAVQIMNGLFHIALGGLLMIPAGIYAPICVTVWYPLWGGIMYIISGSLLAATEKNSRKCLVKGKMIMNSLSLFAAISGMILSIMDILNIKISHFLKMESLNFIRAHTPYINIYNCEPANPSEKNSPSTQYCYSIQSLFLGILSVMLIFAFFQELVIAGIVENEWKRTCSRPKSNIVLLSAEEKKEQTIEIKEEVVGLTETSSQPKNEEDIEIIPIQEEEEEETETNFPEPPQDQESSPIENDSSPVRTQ

K175F, sequence (CD20, as listed by the source K175F K175F limits assumed): as the sequence (CD20, as listed by the source limits assumed) above, with K175F counted along it
N171H, sequence (CD20, as listed by the source N171H N171H limits assumed): as the sequence (CD20, as listed by the source limits assumed) above, with N171H counted along it
E174Y, sequence (CD20, as listed by the source E174Y E174Y limits assumed): as the sequence (CD20, as listed by the source limits assumed) above, with E174Y counted along it
E174D, sequence (CD20, as listed by the source E174D E174D limits assumed): as the sequence (CD20, as listed by the source limits assumed) above, with E174D counted along it
E168A, sequence (CD20, as listed by the source E168A E168A limits assumed): as the sequence (CD20, as listed by the source limits assumed) above, with E168A counted along it
P172A, sequence (CD20, as listed by the source P172A P172A limits assumed): as the sequence (CD20, as listed by the source limits assumed) above, with P172A counted along it
S173A, sequence (CD20, as listed by the source S173A S173A limits assumed): as the sequence (CD20, as listed by the source limits assumed) above, with S173A counted along it
N171A, sequence (CD20, as listed by the source N171A N171A limits assumed): as the sequence (CD20, as listed by the source limits assumed) above, with N171A counted along it
K175R, sequence (CD20, as listed by the source K175R K175R limits assumed): as the sequence (CD20, as listed by the source limits assumed) above, with K175R counted along it
S177A, sequence (CD20, as listed by the source S177A S177A limits assumed): as the sequence (CD20, as listed by the source limits assumed) above, with S177A counted along it
N176A, sequence (CD20, as listed by the source N176A N176A limits assumed): as the sequence (CD20, as listed by the source limits assumed) above, with N176A counted along it
A170P, sequence (CD20, as listed by the source A170P A170P limits assumed): as the sequence (CD20, as listed by the source limits assumed) above, with A170P counted along it
A170S, sequence (CD20, as listed by the source A170S A170S limits assumed): as the sequence (CD20, as listed by the source limits assumed) above, with A170S counted along it

% of best binder (S177A)	% of best binder (K175F)	% of best binder (N176A)	% of best binder (E174D)	% of best binder (P172A)	% of best binder (N171H)	% of best binder (K175R)	% of best binder (N171A)	% of best binder (S173A)	% of best binder (A170S)	% of best binder (A170P)	% of best binder (E168A)	% of best binder (E174Y)	% of best binder (WT)	Substance
40%	46%	2%	57%	31%	58%	53%	46%	55%	55%	38%	48%	51%	59%	B1 (antibody)
68%	71%	67%	67%	69%	86%	71%	82%	73%	60%	62%	66%	80%	77%	m7D8 (antibody)
79%	94%	88%	9%	96%	100%	89%	100%	98%	84%	41%	83%	13%	82%	m11B8 (antibody)
63%	67%	65%	52%	25%	5%	65%	3%	2%	60%	42%	52%	29%	77%	mRTX (antibody)

From patent US20260009051A1
